IntAct's records for PubMed 21808041

B1: Non-structural protein 1 (Influenza B virus (strain B/Lee/1940)), P03502 (parent)
chain: MADNMTTTQIEVGPGATNATINFEAGILECYERFSWQRALDYPGQDRLHRLKRKLESRIKTHNKSEPENKRMSLEERKAIGVKMMKVLLFMDPSAGIEGFEPYCVKNPSTSKCPNYDWTDYPPTPGKYLDDIEEEPENVDHPIEVVLRDMNNKDARQKIKDEVNTQKEGKFRLTIKRDIRNVLSLRVLVNGTFLKHPNGDKSLSTLHRLNAYDQNGGLVAKLVATDDRTVEDEKDGHRILNSLFERFDEGHSKPIRAAETAVGVLSQFGQEHRLSPEEGDN

Variants of: B1
Details: with isg15_human ISG15, P05161
Chain of isg15_human ISG15, P05161 (P05161 whole entry): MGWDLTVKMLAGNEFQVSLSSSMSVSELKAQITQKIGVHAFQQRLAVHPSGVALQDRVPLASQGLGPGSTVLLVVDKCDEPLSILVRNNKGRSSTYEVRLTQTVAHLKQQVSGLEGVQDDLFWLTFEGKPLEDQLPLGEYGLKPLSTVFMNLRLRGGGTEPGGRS

Row | Variant | effect of a mutation on the interaction
1 | MADNMTTTQIEVGPGATNATINFEAGILECYERFSAARALDYPGQDRLHRLKRKLESRIKTHNKSEPENKRMSLEERKAIGVKMMKVLLFMDPSAGIEGFEPYCVKNPSTSKCPNYDWTDYPPTPGKYLDDIEEEPENVDHPIEVVLRDMNNKDARQKIKDEVNTQKEGKFRLTIKRDIRNVLSLRVLVNGTFLKHPNGDKSLSTLHRLNAYDQNGGLVAKLVATDDRTVEDEKDGHRILNSLFERFDEGHSKPIRAAETAVGVLSQFGQEHRLSPEEGDN [W36A;Q37A] | disrupting interaction strength
2 | MADNMTTTQIEVGPGATNATINFEAGILECYERFSWQRALDYPGQDRLHRLKRKLESRIKTHNKSEPENKRMSLEERKAIGVKMMKVLLFADPSAGIEGAEPYCVKNPSTSKCPNYDWTDYPPTPGKYLDDIEEEPENVDHPIEVVLRDMNNKDARQKIKDEVNTQKEGKFRLTIKRDIRNVLSLRVLVNGTFLKHPNGDKSLSTLHRLNAYDQNGGLVAKLVATDDRTVEDEKDGHRILNSLFERFDEGHSKPIRAAETAVGVLSQFGQEHRLSPEEGDN [M91A;F100A] | decreasing interaction strength
